{"source": "paper PMC7618200", "about": "(The Biochemical journal, 2025)", "molecules": {"B1": {"name": "SRC-3 17-mer peptide 91NDDDVQKADVSSTGQGV107 (peptide)", "peptide": "NDDDVQKADVSSTGQGV", "notes": "also called NCoA-3; source: synthetic peptide"}, "B2": {"name": "SETD2 17-mer peptide DKGSVQAPEISSNSIKD (printed 363-1379) (peptide)", "peptide": "DKGSVQAPEISSNSIKD", "notes": "SET domain-containing protein 2 (SETD2), human; also called SET domain-containing protein 2; source: synthetic peptide"}, "B3": {"name": "Caprin1 17-mer peptide 426QPEATQVPLVSSTSEGY442 (peptide)", "peptide": "QPEATQVPLVSSTSEGY", "notes": "Caprin1, human, residues 426-442; source: synthetic peptide"}, "B4": {"name": "chimeric MyD88-Puc peptide AEKPLQVAAVTSTTS (peptide)", "peptide": "AEKPLQVAAVTSTTS", "notes": "Puckered (Puc) SBC; also called chimeric peptide; source: synthetic peptide (Peptide Synthetics, Peptide Protein Research Limited)"}, "B5": {"name": "Puc-5Flu peptide (SRENLACDEVTSTTSK-5Flu) (peptide)", "peptide": "SRENLACDEVTSTTSK(5Flu)", "notes": "added C-terminal lysine that carries the label; also called ^5Flu-Puc peptide; fluorescently labeled Puc peptide; source: synthetic peptide (Peptide Synthetics, Peptide Protein Research Limited)"}}, "key": {"[1]": {"biological_target": "T1, SPOP^MATH (SPOP MATH domain) (Homo sapiens, UniProt O43791)", "T1 construct": "bacterially expressed SPOP protein (SPOP^MATH); hexahistidine-MBP (with HRV 3C site) (N, cleaved yes); made in house; host or cells: E. coli BL21 (DE3); tracer peptide synthesized by Peptide Synthetics", "assay": "FP competition assay: unlabelled peptide versus Puc-5Flu peptide on SPOP^MATH", "format": "binding", "conditions": "read-out: IC50, FP competition, MyD88 peptides of varying length (Figure 1F)", "procedure": "(§1) Peptides and SPOP^MATH protein were diluted in FP buffer (50 mM HEPES pH 7.5, 100 mM NaCl, 1 mM TCEP, 0.005% Tween-20). Measurements were made in 384-well black flat-bottom low-flange plates (Corning) using 20 μl reaction volumes. Plates were equilibrated at room temperature for 30 minutes before reading. Millipolarization (mP) measurements were taken in a Hidex Sense microplate reader (Hidex) at 25°C, with excitation at 490 nm (20 nm filter), emission at 520 nm (14 nm filter), and a G-factor of 1.\nThe technical duplicate mP values were averaged, and error bars represent standard deviation. Data were plotted and analyzed using Prism 9 software. […] IC50 values from three independent experiments were averaged and the standard deviation was calculated."}, "[2]": {"biological_target": "Pdx1 15-mer peptide, fluorescently labeled (SPOP-binding region of pancreas/duodenum homeobox protein 1) (not stated (Figure 5A aligns a Homo sapiens and a Mesocricetus auratus sequence))", "assay": "fluorescence polarisation; two-fold dilution series of SPOP^MATH mixed with a constant 6-50 nM 5Flu-labeled peptide; 50 mM HEPES pH 7.5, 100 mM NaCl, 1 mM TCEP, 0.005% Tween-20; 25°C; one-site total binding fit; mean of three independent experiments"}, "[3]": {"biological_target": "T1, SPOP^MATH (SPOP MATH domain)", "assay": "Fluorescence polarization (FP) binding of 5Flu-labelled peptides to SPOP^MATH", "conditions": "FP direct binding; 6-50 nM 5Flu-peptide, two-fold dilution series of SPOP^MATH; 50 mM HEPES pH 7.5, 100 mM NaCl, 1 mM TCEP, 0.005% Tween-20; 30 min at room temperature, read at 25°C; one-site total binding fit; mean ± SD of three independent experiments; ~ = estimated; read-out: Kd, binding of fluorescently (5Flu) labeled peptide to SPOP^MATH", "procedure": "as §1"}, "[4]": {"biological_target": "T2, SPOP MATH domain (SPOP^MATH; residues 28-166) (human), O43791", "T2 chain": "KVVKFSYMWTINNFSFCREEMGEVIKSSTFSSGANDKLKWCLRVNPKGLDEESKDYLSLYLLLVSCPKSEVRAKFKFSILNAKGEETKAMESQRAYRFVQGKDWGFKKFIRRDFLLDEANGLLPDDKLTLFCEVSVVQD", "assay": "FP", "conditions": "modification not given"}, "[5]": {"biological_target": "T3, SPOP MATH domain (SPOP^MATH; residues 28-166) (human, UniProt O43791 28-166)", "T3 chain": "T2 chain", "assay": "FP"}, "[6]": {"biological_target": "T3, SPOP MATH domain (SPOP^MATH; residues …)", "assay": "FP"}, "[7]": {"biological_target": "T4, SPOP MATH domain (SPOP^MATH; residues 28-166) (human, UniProt O43791 28-166)", "T4 construct": "the methods print 28-116; Cleaved with HRV 3C protease; also called speckle-type BTB/POZ protein MATH domain; source: E. coli BL21 (DE3), purified (Ni-NTA, tag cleavage, reverse Ni-NTA, SEC); not shown: His6, N-terminal, cleaved; MBP, N-terminal, cleaved", "assay": "fluorescence polarisation; competition: two-fold dilution series of unlabeled peptide with 50 nM Puc-5Flu peptide and 5 μM SPOP^MATH; 50 mM HEPES pH 7.5, 100 mM NaCl, 1 mM TCEP, 0.005% Tween-20; 25°C", "conditions": "both partners purified"}, "[8]": {"biological_target": "T4, SPOP MATH domain (SPOP^MATH; residues …)", "assay": "fluorescence polarisation; two-fold dilution series of SPOP^MATH mixed with a constant 6-50 nM 5Flu-labeled peptide; 50 mM HEPES pH 7.5, 100 mM NaCl, 1 mM TCEP, 0.005% Tween-20; 25°C; one-site total binding fit; mean of three independent experiments", "conditions": "both partners purified"}}, "note": "Read-outs that look alike come from different tables or passages of the source. Ends that are not written are not given here. Peptide text beside a SMILES is read from it. * marks the point of attachment. 5FAM = O=C1OC2(c3ccc(O)cc3Oc3cc(O)ccc32)c2ccc(C(=O)*)cc21; 5Flu = 5-carboxyfluorescein label"}
{"molecule": "AEKPLQVAAVAAAVPRT", "values": [{"measurement": "IC50", "setting": "[1]", "result": "~2110", "unit": "µM"}]}
{"molecule": "SPOP MATH domain (SPOP^MATH; residues 28-166) (from UniProt O43791 28-166) (domain or fragment)", "values": [{"measurement": "Kd", "setting": "[2]", "result": 48, "unit": "µM"}]}
{"molecule": "CC(C)C[C@H](NC(=O)[C@@H]1CCCN1)C(=O)N[C@@H](CCC(N)=O)C(=O)N[C@H](C(=O)N[C@@H](C)C(=O)N[C@@H](C)C(=O)N[C@H](C(=O)N[C@@H](CC(=O)O)C(=O)N[C@@H](CO)C(=O)N[C@@H](CO)C(=O)N[C@H](C(=O)N1CCC[C@H]1C(=O)N[C@@H](CCCNC(=N)N)C(=O)N[C@H](C(=O)O)[C@@H](C)O)C(C)C)C(C)C)C(C)C", "values": [{"measurement": "IC50", "setting": "[1]", "result": "~518", "unit": "µM"}]}
{"molecule": "CC(C)[C@H](NC(=O)c1ccc2c(c1)C(=O)OC21c2ccc(O)cc2Oc2cc(O)ccc21)C(=O)N[C@@H](C)C(=O)N[C@@H](CCC(=O)O)C(=O)N1CCC[C@H]1C(=O)N[C@@H](CCC(=O)O)C(=O)N[C@@H](CCC(N)=O)C(=O)N[C@@H](CC(=O)O)C(=O)N[C@@H](CS)C(=O)N[C@@H](C)C(=O)N[C@H](C(=O)N[C@H](C(=O)N[C@@H](CO)C(=O)NCC(=O)N[C@@H](CCC(=O)O)C(=O)N[C@@H](CCC(=O)O)C(=O)O)[C@@H](C)O)C(C)C", "note": "(5FAM-VAEPEQDCAVTSGEE-OH)", "values": [{"measurement": "Kd", "setting": "[3]", "result": "~48", "unit": "µM"}]}
{"molecule": "AEKPLQVAAVAAAVPRT", "note": "[…]", "values": [{"measurement": "IC50", "setting": "[4]", "result": 2110, "unit": "µM"}]}
{"molecule": "LVSSTSEGY", "note": "[Caprin1 9-mer peptide]", "values": [{"measurement": "IC50", "setting": "[5]", "result": "~773", "unit": "µM"}]}
{"molecule": "SRENLACDEVTSTTS", "note": "[Puc peptide (unlabeled competitor; natural Puc peptide)]", "values": [{"measurement": "IC50", "setting": "[6]", "result": 98.6, "unit": "µM"}]}
{"molecule": "B1", "values": [{"measurement": "IC50", "setting": "[5]", "result": 16.9, "unit": "µM"}, {"measurement": "binding result", "setting": "[7]", "result": "binds"}]}
{"molecule": "B2", "values": [{"measurement": "IC50", "setting": "[5]", "result": "~699", "unit": "µM"}, {"measurement": "binding result", "setting": "[7]", "result": "binds"}]}
{"molecule": "DTDNLQSEQLSSSSDGS", "note": "[SENP7 17-mer peptide]", "values": [{"measurement": "IC50", "setting": "[5]", "result": "~2400", "unit": "µM"}]}
{"molecule": "B3", "values": [{"measurement": "IC50", "setting": "[5]", "result": 2.6, "unit": "µM"}, {"measurement": "binding result", "setting": "[7]", "result": "binds"}]}
{"molecule": "B4", "values": [{"measurement": "binding result", "setting": "[7]", "result": "binds"}]}
{"molecule": "B5", "values": [{"measurement": "Kd", "setting": "[8]", "result": 1.1, "unit": "µM"}]}
